Our source for the stoichiometry N values is paper PMC5130228.

The target in this assay is GST-tagged Cdc42, nucleotide-free (human) (UniProt P60953). Put plainly: pull-down.
Sequence of UniProt P60953 (P60953 whole entry): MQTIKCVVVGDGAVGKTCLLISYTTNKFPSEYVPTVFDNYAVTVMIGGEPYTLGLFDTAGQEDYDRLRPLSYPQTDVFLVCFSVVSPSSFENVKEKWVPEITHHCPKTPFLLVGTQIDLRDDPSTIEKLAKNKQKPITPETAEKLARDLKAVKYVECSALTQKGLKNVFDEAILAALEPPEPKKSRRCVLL

With “MBP-Map residues 37–203 (from UniProt P0AE18 37-203) (domain or fragment)”, the stoichiometry N was found to be 1.
